Results: publication PMC7688639, “Biased localization of actin binding proteins by actin filament conformation” (Nature Communications, 2020)

Assays:
[1] = target: T1, actin filaments (F-actin) polymerised from rabbit muscle actin (rabbit, UniProt P68135 1-377); test: single-molecule TIRF binding kinetics (on-rate); tethered actin filaments; frequency of binding events for a range of concentrations of actin-binding domain, linear regression of frequency against concentration; settings: both partners purified
[2] = target: T1, actin filaments (F-actin) polymerised …; test: single-molecule TIRF binding kinetics (dwell times); actin filaments tethered to a PEG/biotin-PEG coverslip by streptavidin and biotin-phalloidin; labelled binding domain in solution at ~0.05–0.1 nM; 25 mM imidazole, 25 mM KCl, 4 mM MgCl2, 1 mM EGTA, 1 mM DTT, pH 7.4, 10 µg/mL beta casein; double exponential fit of the CDF, bleaching corrected; settings: both partners purified

| Binder | kon [1] | average dwell time (τav) [2] | ratio of the two dwell-time scales (τ2/τ1) [2] |
| --- | --- | --- | --- |
| actin-binding domain of human utrophin (CH1–CH2, AA 1–261) (domain or fragment, maleimide dye on the C-terminal KCK linker (Alexa-488 C5, Alexa-555 C2 or Alexa-647 C2 maleimide; Alexa-555 named as the dye of the dwell-time experiments), KCK linker on the C terminus for maleimide labelling; both cleaved by TEV; also called utrnWT; utrn ABD; source: E. coli BL21 (DE3) pLysS, purified (IMAC, TEV cleavage, size exclusion chromatography); not shown: His10, N-terminal, cleaved; z-tag, N-terminal, cleaved) MAKYGEHEASPDNGQNEFSDIIKSRSDEHNDVQKKTFTKWINARFSKSGKPPINDMFTDLKDGRKLLDLLEGLTGTSLPKERGSTRVHALNNVNRVLQVLHQNNVELVNIGGTDIVDGNHKLTLGLLWSIILHWQVKDVMKDVMSDLQQTNSEKILLSWVRQTTRPYSQVNVLNFTTSWTDGLAFNAVLHRHKPDLFSWDKVVKMSPIERLEHAFSKAQTYLGIEKLLDPEDVAVQLPDKKSIIMYLTSLFEVLPQQVTIDGGSGKCKSA | 2.2e+06 ± 300000 M⁻¹ s⁻¹ | ~1.1 s | 18.3 |
| utrophin actin-binding domain Q33A T36A K121A (domain or fragment, maleimide dye on the C-terminal KCK linker (Alexa-488 C5, Alexa-555 C2 or Alexa-647 C2 maleimide; Alexa-555 named as the dye of the dwell-time experiments), KCK linker on the C terminus for maleimide labelling; also called utrnLAM; source: E. coli BL21 (DE3) pLysS, purified (IMAC, TEV cleavage, size exclusion chromatography); not shown: His10, N-terminal, cleaved; z-tag, N-terminal, cleaved) MAKYGEHEASPDNGQNEFSDIIKSRSDEHNDVAKKAFTKWINARFSKSGKPPINDMFTDLKDGRKLLDLLEGLTGTSLPKERGSTRVHALNNVNRVLQVLHQNNVELVNIGGTDIVDGNHALTLGLLWSIILHWQVKDVMKDVMSDLQQTNSEKILLSWVRQTTRPYSQVNVLNFTTSWTDGLAFNAVLHRHKPDLFSWDKVVKMSPIERLEHAFSKAQTYLGIEKLLDPEDVAVQLPDKKSIIMYLTSLFEVLPQQVTIDGGSGKCKSA | 2.4e+06 ± 300000 M⁻¹ s⁻¹ | ~1.3 s | 9.6 |
| utrophin actin-binding domain Q33A T36A G125A L132A (domain or fragment, maleimide dye on the C-terminal KCK linker (Alexa-488 C5, Alexa-555 C2 or Alexa-647 C2 maleimide; Alexa-555 named as the dye of the dwell-time experiments), KCK linker on the C terminus for maleimide labelling; also called utrnSF; source: E. coli BL21 (DE3) pLysS, purified (IMAC, TEV cleavage, size exclusion chromatography); not shown: His10, N-terminal, cleaved; z-tag, N-terminal, cleaved) MAKYGEHEASPDNGQNEFSDIIKSRSDEHNDVAKKAFTKWINARFSKSGKPPINDMFTDLKDGRKLLDLLEGLTGTSLPKERGSTRVHALNNVNRVLQVLHQNNVELVNIGGTDIVDGNHKLTLALLWSIIAHWQVKDVMKDVMSDLQQTNSEKILLSWVRQTTRPYSQVNVLNFTTSWTDGLAFNAVLHRHKPDLFSWDKVVKMSPIERLEHAFSKAQTYLGIEKLLDPEDVAVQLPDKKSIIMYLTSLFEVLPQQVTIDGGSGKCKSA | 5e+06 ± 2e+06 M⁻¹ s⁻¹ | ~4.6 s |  |
